Data reported in the DeepSol protein solubility set.

Assay: soluble on expression in E. coli; label from the status in PepcDB or PDB records

**Q.** For “MSAKIKAWSSNAEKLNSKRKKMEIREELFPSTTCSSSPQANQEISSEDRNSHHPDIASSSSATTCRSSNCFNMDEGILTRDVEMDFSDEIPTFSHNRFSNPVFPPTPSRNSFSTPRVRIISNVEQIPQIKMLRLTIERLKNEKMKYQKKYKSGMAVDFLSKCGLSLSQMEKIKNYLTNSIGYDLLPLVKNTRDLSIQLSMISSFKVSTSFDNKGKVITIVQCMKIAEVLAYRIELLCNSNQFVDDGYTKGVIKIGVVGDAGGGSTKHVMVIAVYDGSDNYSCLKKFIPDVLEQLGKLTKIRYLDKGVQKTAKIVQIATGDCKFQFDILGHQGHSSHNFCFKCFAQNPRGAEERMKIKDMNVDETFHPRTIDLYKACCTPLLPHVAIMFYLIPLLHIIMGIFDKYIFNPLWKYSVTLDNTTCFPILKTRKATLKNAVNLIKSAEEKYQAATGKMKLESHAELKALQSEKLLLDTIVNGTPGGTLEKMEQCWAKFGADKQAWFQSFCGNHLKLLLTPAIVEETFNIFGPNLCPMLLGLKSAMGKLSTIMSLSGNKFLNDSDVLILQNSIRGFVEDLKVAVPEETIILKLHLVVYHAPQMAKDVRNIGRITEPGVESVHAIFNALERRFCNYRDKKRRYIHVLRELMCRNIMNDMTMNTSIPGLSIVPKDATVLPISSQNDLRDPKVVIRDVTAAQKRKNLAKKKINFSSKKRLPQSTKSRNAVPDFSQNVQTSIAFGGNSTKIGFRGLPSNALSRPNPMAITQTCSTSQPITRSHPLVAPPVSYQLPKCSNSLAEKIRASCGQARRSAAESSSTESHVDTNSKKKVYRLKFVQKSREIPKK”, which “soluble on expression in E. coli” value is on record?
**A.** Its value is “not soluble”.

**Q.** Which “soluble on expression in E. coli” value does the source give for “MQAGARLARQDNAMADAPAPAPKRARAGRPPTLAAPRERILEEAARLFARSGYENSSVADLAAAIGVSKAALYHYFPTKQDIYDAIILETLAGLLQAVTREVERQREACERLRAFMVGHARYFARHHEQFVTMLIGYSGMALPERADAAQLRDRYEQLLRDLLEQGMATGTLRRLDVAATGRAVLSMLNWMVRWYKPGQGDSAEQIADGYYDLLFNGLRI” here?
**A.** The value was “soluble”.

**Q.** Which “soluble on expression in E. coli” value does the source give for “MKSFLVAGCTSDAGKSVVVAGLCRALTRRGLRVAPFKAQNMSNNSAVTPDGGEIGRAQALQAYACGLTPSVDFNPILLKPGSDRTSQLVVRGIATGNVSARSYIEHRTELRKIASESLNSLRERFDVVVCEGAGSPAETNLRATDVANFGLAEECDLPVYIVGDIDRGGVLAHFYGTHQIVDDADRARIKGFVVNKFRGDVSILEPGLQDLEDRLGVPTVAVLPFIHGLWIDAEDSLQSTIGATVGPAAAPLGTQRLRVAAIRLPRVSNATDVEALACEPGVTVTWTVDPDSVAEADLVVIPGSKATLSDLAWLRSTGVADAIMERARSQRPILGICGGFQMMCSHIDDPVESGSTTPVEGLGIFDVDIEFHPEKTLIRHENGGYEVHHGRVERSTEQPWIGNEGARTQSNFGTHRHGYLEDDEARRDFLGTVSTLAQRPGFVVAPATSFEAERNKQLDVIADAIEQHWDLDQLIAALT” here?
**A.** The value was “not soluble”.

**Q.** Which “soluble on expression in E. coli” value does the source give for “GPGSMTEYLKDIGRTKPGDPMPPINLGPYDNPLLWNMLDPFGADRGHQRRPMSVSRDFMELHNVPIIFRDQCVHRWVPFHRCLKNLKPVTWGTANCHEFEEAWMICRAYETYRNQLLKTKFMELTKDYTAEDKKFFPSLLHLSVPTYMNSFYWTMAASQRLSGWDERDPANPMTWREPNRALMRAEFSPTNWEQGNLTNATGHKLITDDLVFDMVPGFPLPEDKRPETLY” here?
**A.** The value was “not soluble”.

**Q.** With “MKMARMSKKKKLEMLDVARDEERNRIIRLLTEDDNFTPSLEPLIDNYLDAFIIYKTMFEEWKADGFAPTKTHKNKAGAVNEMKHPLAQQVETWNDKKNKMLEALGMTNKGKSVQKTPKNAENIQTDEPKDELAAHRNKWRKSK” as the sequence, how does the “soluble on expression in E. coli” value read?
**A.** Its value is “not soluble”.

**Q.** For “MIVRTLLDTDLYKFTTSYAYIKLFPYAMGTFSFNDRNETEYTEEFLEALKSEFNKLSRLRLTEEELEYMTRNCRFLPRVYWEWLSSFRFDPDKIDIHLDTTGRLHIEVSDFLYKVTLYEVPLLAIVSEIKNKFFGNVPDMSEILCKLSEKVELSNQHQLRFSEFGTRRRFSIDVQETVIKRLNDTAKYCTGTSNCYFAMKYGMKMMGTHPHEWFMFHGAQFGYKHANYMALENWVNVYDGDLGIALSDTYTSGIFLSNLSRKQAKLFDGVRCDSGNEFDFIDKLVARYKELGIDATTKTIVFSNALDFTKALEIQEYCKDKIRCSFGIGTNLTNDTGFAPSNIVMKLTQCKMNVNQEWRECIKLSDDEGKHTGSPEEVQACLYELRLAKLEHHHHHH”, which “soluble on expression in E. coli” value is on record?
**A.** The value was “soluble”.

**Q.** Which “soluble on expression in E. coli” value does the source give for “GMGSSRKVIITCAVTGAIHTPSMSPYLPVTPDEVAQASIGAAEAGAAVIHLHARDPRDGRPTQDPAAFAEFLPRIKSNTDAVINLTTGGSPHMTVEERLRPATHYMPELASLNMGSMNFGLYPMLERFKEFAHGWEREHLERSRDLVFKNTFADIEFILKTCGGNGTRFEFECYDTSHLYNLAHFVDRKLATPPFFVQTVFGLLGGIGPHPEDLAHMRRTADRLFGADYVWSILGAGRHQIPLASIGAAQGANVRVGLEDSLWIAPGELAETNAAQVRKIRQVIEGLSLEVASPAEARTMLGLKGPQNVNF” here?
**A.** The value was “soluble”.

**Q.** With “MCAKATMEEFEALLNESLQIDTPQEGSVVKGKVIAVEAGQAIIDVGYKMEGRVDLKEFADMSGSVDISVGDEVEVYLDRVENARGEAVISRDKAKREEAWDRLEKAYANETRVEGAIFGRVKGGFTVDLGGAVAFLPGSQVDVRPVRDAGPLMGMKQPFQILKMDRRRGNIVVSRRAILEESRAEQRAEVISNLFEGQTVDGVVKNITEYGAFVDLGGVDGLLHVTDMAWRRVNHPSEILSIGETVKVQVIKINKETHRISLGMKQLQSDPWDAVEKAYPIGSVHKGRVTNITDYGAFVELEAGVEGLVHVSEMSWTKKNVHPGKIVSTSQEVDVMVLEIDSAKRRVSLGLKQTMRNPWEVFAETHPVGTPIEGEVKNITEFGLFVGLEHDIDGMVHLSDLSWDQRGEEAIQNYRKGDVVKAVVTEVDTDKERISLSIKALGDDTFSEAIEGVKRGSVITVTVTAIEDGGIEVEYNSMKSFIRRSDLSRDRADQRPERFQVGDKVDVRVTNVDAKTRRLGLSIKAREIAEEKEAVEQYGSSDSGASLGDILGAALRNSDRGLEHHHHHH” as the sequence, how does the “soluble on expression in E. coli” value read?
**A.** The value was “soluble”.

**Q.** For “MGSDKIHHHHHHMFQRAFLLYNGKAGNGKTDKYLKDVVPRALQSIGELTIIPSKEKGDIESICREREVDLIIVMGGDGTVHECINGLAVSPSPPPLVVLPTGTCNDFARSLRIPLSFVEAGNLLESGTWKRVPLIQANHRCYTNFLGMGIITTASEGTNPELKETFGRFSYFLSALQSLREPSPFSYTITSTKGSMSGQAILLLVMHGQFLGTLPVQLDENAIEQPFVTIYIVKEGGLPFIKDLVKGLVSPAMVNESDHIDRMTCDQCQIETEPVLSIDMDGEIYMKTPVNITTVGKVITVRVPDVNVTSDADHTIGGAQDTP”, which “soluble on expression in E. coli” value is on record?
**A.** The value was “not soluble”.

**Q.** For “SAGTGLVAGEVVVDALPYFDQGYEAPGVREAAAALVEEETRRYRPTKNYLSYLTAPDYSAFETDIMRNEFERLAARQPIELLSMKRYELPAPSSGQKNDITAWQECVNNSMAQLEHQAVRIENLELMSQHGCNAWKVYNENLVHMIEHAQKELQKLRKHIQDLNWQRKNMQLTAGSKLREMESNWVSLVSKNYEIERTIVQLENEIYQIKQQHGEANKENIRQDF”, which “soluble on expression in E. coli” value is on record?
**A.** Its value is “soluble”.

**Q.** Which “soluble on expression in E. coli” value does the source give for “MSHRKALLIHNGNAANKNIEKALGAVVPVLSHHLDEVIIKQTKKKDHAYHFCRSIDDSVDTVFILGGDGTIHQCINAISALERKPAVGILPGGTSNDFSRVLGIPQNLAKAAEALMAGKKTSVDVCQMNDRYFLNFWGIGLIAETSNQINETEKALLGKISYFTSALRTVSSAASFPMTLKIDGEEIKEEAVMLLVMNGQYIGTNRIPLPDASIEDGLLDVLICRNTNLTALRELMSMEQGSIDRFTGELSYVQASRIEIETDTAKKADMDGEVYTHTPAVIQVLPQHIDMLVPANE” here?
**A.** The value was “soluble”.

**Q.** Which “soluble on expression in E. coli” value does the source give for “MAHHHHHHMKWSAVCLLKRDFDAWAYSINWPQRKSHLPLLGSVSLTVEDIKFAYNAWCLLRLAMFFGTGHPKILSPLVNTTPSMDIMYGGNRLFYMHAEVGASLSRHKPKVALTPSHPDAQPVQSFPWRKVIREAGERRTGNEDCDGGVEIVLGMENGLSENVVSQCDYCLYIPQYGSIGSLSMISAMAIALHSAASAHVDQYMRDDDRVSPCSSRGHMPLSNGSLKVTKGNNLPHETNLLSLSNVEIAEILRARRMSYPMQLSVMVYNEFGDRNIGAIMRNANVFNCEQMIVLHRRKFNRRGALGTQHLIKTLFCSGVDDAQCQKSLEGYTIWLLYQYYPYLKIYEDPNGDEDATFIRPESTLLQEWLQGSYGMNPDHPMMNFHASHMIGTDVYLDDSDSVHAAVRHAANEGYRGIVLVVPEEGASFQRDIVKKARRIAYVVHPDRLARNVQRGLNGALSSAIALERLRTAIDGLQ” here?
**A.** Its value is “not soluble”.

**Q.** With “MIVLETERLNLRWFDIKDAPFILELVNDPAWIQFIGDKGVRNLEDAKNYIVNGPIDMYNKLRFGLYLVERKEDLTPLGMCGLIKRDSLEDVDIGFAFLETFRSKGYGYESASAIIEYGVQKLGMKRIVAITSIDNIASGKLLEKVGLRFEKIISDSGEDLKLFGYNA” as the sequence, how does the “soluble on expression in E. coli” value read?
**A.** The value was “not soluble”.

**Q.** Which “soluble on expression in E. coli” value does the source give for “MEKSLKNYKTLQQLFVRRLKAGVRPVDADEHTVVSPVDAVIEDMGTIRENCEMIVKGKPYSIAEMLGSVEAAQPYVNGFFFILYLSPSHYHRIHSPISGVIEKQWALGRKSYPVNRLGLKYGRRPLEKNYRLITEVTAGGKRLAIVKIGAMFVNSIELTHEGEQLVKGEEMAYFSFGSTVVLLFERGSFAPDPRIVAPMPIKVGERLGYWCEAHER” here?
**A.** Its value is “not soluble”.

**Q.** Which “soluble on expression in E. coli” value does the source give for “MAHYKAADSKREQFRRYLEKSGVLDTLTKVLVALYEEPEKPNSALDFLKHHLGAATPENPEIELLRLELAEMKEKYEAIVEENKKLKAKLAQYEPPQEEKRAE” here?
**A.** Its value is “soluble”.

**Q.** With “MRIFEPGLCSVTFRSLSPQAVIDLAVANGIRAIEWGADIHVPAGDLENARDVAERTAKAGLAVSSYGSYIFAPDFTRKDLTAVLETAKALGTGHIRIWPGQRKRPSTDYSPAERRTATEALAEIARQAQDYDMTIGLEYHPNSLTDTLPSALQLAQDLALPNLFFYWQPAPGLPLEKALAEISKIGSRVCHLHIFAWLADTNRLPLADRVDYWQSCVEALPESEWTKPAYAMLEFVKGDDVGQFAEDAVTLSEILAGHRVADLEHHHHHH” as the sequence, how does the “soluble on expression in E. coli” value read?
**A.** The value was “soluble”.

**Q.** With “MSLDVGGSERIPSEMRAWEVTSPAPIDSSPSPIHFVKHPVPVPKTSEVLVRVISCGICHTDLHVAEGDLPVHHPHVIPGHEIIGRVVANGPQAGRFNLGDRIGVPWLRWTCGVCTYCRSGKENLCPNSLYTGWDHDGGYAEYVTVPEGFAYRIPSAFNSVTAAPLLCAGIIGYHAFRRANVPAGGRLGLYGFGGSAHLAAQIAIAQGIEVHVFTRGKDAQRFALELGAASAQGVYDPSPVSLDSSILFAPVGDIVPKALENLAAGGTLALAGIHLTDVPSLNYQNHLFHEKVLTSVESNTRRDGEEFLTLADRLKIHPKTTEYPFEKADEALRHLSHGDMQGACVLRISEGHHHHHH” as the sequence, how does the “soluble on expression in E. coli” value read?
**A.** Its value is “not soluble”.

**Q.** With “ISEFDSGETMREEQPHLATTWAARGWVEEEGIGSATLGRLVRAWPRRAAVVNKADILDEWADYDTLVPDYPLEIVPFAEHPLFLAAEPHQRQRVLTGMWIGYNERVIATEQLIAEPAFDLVMHGVFPGSDDPLIRKSVQQAIVDESFHTYMHMLAIDRTRELRKISERPPQPELVTYRRLRRVLADMPEQWERDIAVLVWGAVAETCINALLALLARDATIQPMHSLITTLHLRDETAHGSIVVEVVRELYARMNEQQRRALVRCLPIALEAFAEQDLSALLLELNAAGIRGAEEIVGDLRSTAGGTRLVRDFSGARKMVEQLGLDDAVDFDFPERPDWSPHTPR” as the sequence, how does the “soluble on expression in E. coli” value read?
**A.** Its value is “soluble”.

**Q.** Which “soluble on expression in E. coli” value does the source give for “MGMENYNPPQEPWLVILYQDDHIMVVNKPSGLLSVPGRLEEHKDSVMTRIQRDYPQAESVHRLDMATSGVIVVALTKAAERELKRQFREREPKKQYVARVWGHPSPAEGLVDLPLICDWPNRPKQKVCYETGKPAQTEYEVVEYAADNTARVVLKPITGRSHQLRVHMLALGHPILGDRFYASPEARAMAPRLLLHAEMLTITHPAYGNSMTFKAPADFLEHHHHHH” here?
**A.** The value was “soluble”.
